Experiments:
Test in all cases: IP/MS, LZTR1 wild type-FLAG, U87
KNL1 = KNL1 (human, UniProt Q8NG31 1-2342, limits assumed)
In short: (§1)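 Read-out: spectral counts from LC-MS/MS (Orbitrap Fusion) after MaxQuant identification. Variable modifications were Met oxidation, protein N-terminal acetylation and N/Q deamidation.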

ASXL1 = ASXL1 (human, UniProt Q8IXJ9 1-1541, limits assumed)
In short: as §1

DIP2B = DIP2B (human, UniProt Q9P265 1-1576)
In short: as §1

DPP9 = DPP9 (human, UniProt Q86TI2 2-863, limits assumed)
In short: as §1

EPG5 = EPG5 (human, UniProt Q9HCE0 1-2579, limits assumed)
In short: as §1

ALPK2 = ALPK2 (human, UniProt Q86TB3 1-2170)
Sequence of ALPK2 (Q86TB3 whole entry): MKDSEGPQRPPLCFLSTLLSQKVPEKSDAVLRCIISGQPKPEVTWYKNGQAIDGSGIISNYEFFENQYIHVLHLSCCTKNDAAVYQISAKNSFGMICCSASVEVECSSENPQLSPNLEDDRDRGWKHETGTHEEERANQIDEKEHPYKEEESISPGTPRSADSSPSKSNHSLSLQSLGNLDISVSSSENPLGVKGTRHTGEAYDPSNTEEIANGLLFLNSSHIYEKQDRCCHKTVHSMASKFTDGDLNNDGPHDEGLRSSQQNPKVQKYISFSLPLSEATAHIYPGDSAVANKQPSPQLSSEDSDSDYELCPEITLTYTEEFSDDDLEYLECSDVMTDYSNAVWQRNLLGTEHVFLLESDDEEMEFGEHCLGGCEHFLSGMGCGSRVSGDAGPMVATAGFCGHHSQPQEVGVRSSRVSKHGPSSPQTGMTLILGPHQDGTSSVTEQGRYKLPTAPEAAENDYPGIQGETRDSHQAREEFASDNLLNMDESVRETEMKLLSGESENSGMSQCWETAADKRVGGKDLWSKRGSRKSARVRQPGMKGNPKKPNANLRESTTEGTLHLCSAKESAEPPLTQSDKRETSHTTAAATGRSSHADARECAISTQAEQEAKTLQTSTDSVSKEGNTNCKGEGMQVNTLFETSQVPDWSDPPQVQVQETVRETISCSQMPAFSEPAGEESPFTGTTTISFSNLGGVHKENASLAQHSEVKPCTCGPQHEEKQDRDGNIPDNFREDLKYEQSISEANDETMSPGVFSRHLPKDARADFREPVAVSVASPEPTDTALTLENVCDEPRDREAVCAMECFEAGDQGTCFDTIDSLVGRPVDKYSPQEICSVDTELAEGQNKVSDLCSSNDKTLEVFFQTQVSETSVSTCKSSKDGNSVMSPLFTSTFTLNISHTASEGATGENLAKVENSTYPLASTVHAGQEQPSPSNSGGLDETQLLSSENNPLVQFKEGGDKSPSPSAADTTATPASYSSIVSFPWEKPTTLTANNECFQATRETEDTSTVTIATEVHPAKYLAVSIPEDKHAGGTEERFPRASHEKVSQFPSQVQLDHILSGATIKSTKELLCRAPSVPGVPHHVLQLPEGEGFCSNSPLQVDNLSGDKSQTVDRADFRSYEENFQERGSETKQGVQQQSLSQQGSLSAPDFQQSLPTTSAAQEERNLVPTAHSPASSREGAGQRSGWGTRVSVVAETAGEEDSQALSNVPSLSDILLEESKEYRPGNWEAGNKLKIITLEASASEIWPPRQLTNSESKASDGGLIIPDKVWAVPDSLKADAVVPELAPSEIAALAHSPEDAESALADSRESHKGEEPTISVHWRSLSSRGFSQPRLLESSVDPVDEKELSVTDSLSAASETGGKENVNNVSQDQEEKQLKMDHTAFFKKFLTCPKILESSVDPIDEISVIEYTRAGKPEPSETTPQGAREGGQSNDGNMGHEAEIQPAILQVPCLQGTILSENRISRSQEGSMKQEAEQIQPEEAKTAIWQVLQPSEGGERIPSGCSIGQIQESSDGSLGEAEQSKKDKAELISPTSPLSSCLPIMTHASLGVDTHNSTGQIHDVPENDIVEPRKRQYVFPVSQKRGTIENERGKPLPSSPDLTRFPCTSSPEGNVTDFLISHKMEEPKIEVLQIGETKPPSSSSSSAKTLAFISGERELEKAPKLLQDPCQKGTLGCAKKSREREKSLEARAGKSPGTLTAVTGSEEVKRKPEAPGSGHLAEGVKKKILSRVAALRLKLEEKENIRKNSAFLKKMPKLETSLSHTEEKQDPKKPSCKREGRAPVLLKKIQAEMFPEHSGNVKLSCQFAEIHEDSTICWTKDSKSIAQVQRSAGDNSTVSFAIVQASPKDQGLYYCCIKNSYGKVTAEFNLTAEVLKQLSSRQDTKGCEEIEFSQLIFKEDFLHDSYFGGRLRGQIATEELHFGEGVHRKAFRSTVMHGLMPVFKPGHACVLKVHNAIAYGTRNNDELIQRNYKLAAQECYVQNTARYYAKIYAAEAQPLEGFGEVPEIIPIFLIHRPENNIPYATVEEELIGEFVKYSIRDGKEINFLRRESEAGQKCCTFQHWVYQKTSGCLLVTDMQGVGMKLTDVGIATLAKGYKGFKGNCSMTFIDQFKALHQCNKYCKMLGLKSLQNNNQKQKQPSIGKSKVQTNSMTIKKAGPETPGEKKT
In short: as §1

EIF2AK4 = EIF2AK4 (human, UniProt Q9P2K8 1-1649, limits assumed)
Sequence of EIF2AK4 (Q9P2K8 whole entry): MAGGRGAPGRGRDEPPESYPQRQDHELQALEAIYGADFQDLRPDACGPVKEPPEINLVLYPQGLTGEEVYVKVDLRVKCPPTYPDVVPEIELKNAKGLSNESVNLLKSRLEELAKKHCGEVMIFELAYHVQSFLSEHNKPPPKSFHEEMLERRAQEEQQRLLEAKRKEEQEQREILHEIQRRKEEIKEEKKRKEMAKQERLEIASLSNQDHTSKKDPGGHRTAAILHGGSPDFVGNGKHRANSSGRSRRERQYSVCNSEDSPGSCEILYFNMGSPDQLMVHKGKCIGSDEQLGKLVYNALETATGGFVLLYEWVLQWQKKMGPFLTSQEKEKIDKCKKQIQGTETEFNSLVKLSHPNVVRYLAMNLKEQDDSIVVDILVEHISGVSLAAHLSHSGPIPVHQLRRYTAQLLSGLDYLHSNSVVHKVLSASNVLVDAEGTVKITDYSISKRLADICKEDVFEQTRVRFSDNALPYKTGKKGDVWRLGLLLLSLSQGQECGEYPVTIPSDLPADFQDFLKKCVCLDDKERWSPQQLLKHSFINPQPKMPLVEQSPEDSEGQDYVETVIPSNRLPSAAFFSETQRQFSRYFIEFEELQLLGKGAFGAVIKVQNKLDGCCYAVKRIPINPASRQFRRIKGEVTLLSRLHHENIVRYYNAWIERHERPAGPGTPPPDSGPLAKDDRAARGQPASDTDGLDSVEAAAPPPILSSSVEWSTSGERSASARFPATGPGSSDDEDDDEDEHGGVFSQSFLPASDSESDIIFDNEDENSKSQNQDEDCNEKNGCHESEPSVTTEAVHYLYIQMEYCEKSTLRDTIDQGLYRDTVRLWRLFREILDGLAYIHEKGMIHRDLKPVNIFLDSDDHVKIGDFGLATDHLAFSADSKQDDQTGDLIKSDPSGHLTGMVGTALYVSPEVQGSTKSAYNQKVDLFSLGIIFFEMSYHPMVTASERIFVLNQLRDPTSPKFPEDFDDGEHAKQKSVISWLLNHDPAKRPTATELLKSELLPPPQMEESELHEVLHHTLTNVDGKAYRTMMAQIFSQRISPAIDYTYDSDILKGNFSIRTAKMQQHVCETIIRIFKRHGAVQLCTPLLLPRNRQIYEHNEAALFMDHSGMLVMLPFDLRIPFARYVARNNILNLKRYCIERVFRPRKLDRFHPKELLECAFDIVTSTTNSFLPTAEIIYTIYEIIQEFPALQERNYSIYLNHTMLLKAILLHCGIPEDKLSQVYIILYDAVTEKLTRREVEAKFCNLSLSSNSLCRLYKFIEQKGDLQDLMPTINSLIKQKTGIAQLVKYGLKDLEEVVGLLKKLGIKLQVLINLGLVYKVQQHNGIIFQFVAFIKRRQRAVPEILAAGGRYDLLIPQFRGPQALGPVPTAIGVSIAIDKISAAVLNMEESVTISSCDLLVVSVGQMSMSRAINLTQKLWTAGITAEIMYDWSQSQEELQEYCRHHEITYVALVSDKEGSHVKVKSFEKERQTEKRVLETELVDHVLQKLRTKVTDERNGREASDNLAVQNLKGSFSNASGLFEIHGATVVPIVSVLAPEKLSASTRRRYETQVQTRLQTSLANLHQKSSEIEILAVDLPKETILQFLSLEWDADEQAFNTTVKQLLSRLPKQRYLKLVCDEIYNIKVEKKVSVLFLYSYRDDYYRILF
In short: as §1

BUB1 = BUB1 (human, UniProt O43683 1-1085, limits assumed)
Sequence of BUB1 (O43683 whole entry): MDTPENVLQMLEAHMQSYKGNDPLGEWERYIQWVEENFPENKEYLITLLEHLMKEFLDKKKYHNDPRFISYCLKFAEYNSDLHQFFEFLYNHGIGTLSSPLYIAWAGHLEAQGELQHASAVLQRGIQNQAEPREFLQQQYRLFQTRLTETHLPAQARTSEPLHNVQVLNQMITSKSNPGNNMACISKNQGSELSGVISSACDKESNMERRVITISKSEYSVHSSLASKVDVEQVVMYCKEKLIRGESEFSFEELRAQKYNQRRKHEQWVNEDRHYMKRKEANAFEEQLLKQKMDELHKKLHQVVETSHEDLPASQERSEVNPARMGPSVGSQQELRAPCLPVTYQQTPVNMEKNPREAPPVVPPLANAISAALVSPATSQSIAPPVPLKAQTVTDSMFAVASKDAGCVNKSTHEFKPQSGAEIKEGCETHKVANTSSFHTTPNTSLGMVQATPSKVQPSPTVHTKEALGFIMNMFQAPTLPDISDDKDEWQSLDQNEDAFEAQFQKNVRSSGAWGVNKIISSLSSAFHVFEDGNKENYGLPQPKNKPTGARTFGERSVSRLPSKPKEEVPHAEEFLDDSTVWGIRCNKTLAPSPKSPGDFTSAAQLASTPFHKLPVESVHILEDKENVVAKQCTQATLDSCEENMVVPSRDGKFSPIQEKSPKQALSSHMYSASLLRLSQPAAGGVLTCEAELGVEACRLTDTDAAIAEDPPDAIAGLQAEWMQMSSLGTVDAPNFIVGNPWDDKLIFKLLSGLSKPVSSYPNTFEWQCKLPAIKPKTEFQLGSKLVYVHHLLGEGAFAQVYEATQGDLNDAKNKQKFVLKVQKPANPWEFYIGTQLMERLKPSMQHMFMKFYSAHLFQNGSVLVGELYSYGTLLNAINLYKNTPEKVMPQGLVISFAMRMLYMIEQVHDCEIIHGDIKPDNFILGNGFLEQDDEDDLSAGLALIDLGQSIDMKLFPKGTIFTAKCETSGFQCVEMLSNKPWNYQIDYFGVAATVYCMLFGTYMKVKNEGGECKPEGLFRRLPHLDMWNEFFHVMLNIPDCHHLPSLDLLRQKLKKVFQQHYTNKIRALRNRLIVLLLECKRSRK
In short: as §1

ARHGAP31 = ARHGAP31 (human, UniProt Q2M1Z3 1-1444)
In short: as §1

AP4E1 = biological target: T1, AP4E1 (human, UniProt Q9UPM8 1-1137, limits assumed)
T1 sequence (looked up): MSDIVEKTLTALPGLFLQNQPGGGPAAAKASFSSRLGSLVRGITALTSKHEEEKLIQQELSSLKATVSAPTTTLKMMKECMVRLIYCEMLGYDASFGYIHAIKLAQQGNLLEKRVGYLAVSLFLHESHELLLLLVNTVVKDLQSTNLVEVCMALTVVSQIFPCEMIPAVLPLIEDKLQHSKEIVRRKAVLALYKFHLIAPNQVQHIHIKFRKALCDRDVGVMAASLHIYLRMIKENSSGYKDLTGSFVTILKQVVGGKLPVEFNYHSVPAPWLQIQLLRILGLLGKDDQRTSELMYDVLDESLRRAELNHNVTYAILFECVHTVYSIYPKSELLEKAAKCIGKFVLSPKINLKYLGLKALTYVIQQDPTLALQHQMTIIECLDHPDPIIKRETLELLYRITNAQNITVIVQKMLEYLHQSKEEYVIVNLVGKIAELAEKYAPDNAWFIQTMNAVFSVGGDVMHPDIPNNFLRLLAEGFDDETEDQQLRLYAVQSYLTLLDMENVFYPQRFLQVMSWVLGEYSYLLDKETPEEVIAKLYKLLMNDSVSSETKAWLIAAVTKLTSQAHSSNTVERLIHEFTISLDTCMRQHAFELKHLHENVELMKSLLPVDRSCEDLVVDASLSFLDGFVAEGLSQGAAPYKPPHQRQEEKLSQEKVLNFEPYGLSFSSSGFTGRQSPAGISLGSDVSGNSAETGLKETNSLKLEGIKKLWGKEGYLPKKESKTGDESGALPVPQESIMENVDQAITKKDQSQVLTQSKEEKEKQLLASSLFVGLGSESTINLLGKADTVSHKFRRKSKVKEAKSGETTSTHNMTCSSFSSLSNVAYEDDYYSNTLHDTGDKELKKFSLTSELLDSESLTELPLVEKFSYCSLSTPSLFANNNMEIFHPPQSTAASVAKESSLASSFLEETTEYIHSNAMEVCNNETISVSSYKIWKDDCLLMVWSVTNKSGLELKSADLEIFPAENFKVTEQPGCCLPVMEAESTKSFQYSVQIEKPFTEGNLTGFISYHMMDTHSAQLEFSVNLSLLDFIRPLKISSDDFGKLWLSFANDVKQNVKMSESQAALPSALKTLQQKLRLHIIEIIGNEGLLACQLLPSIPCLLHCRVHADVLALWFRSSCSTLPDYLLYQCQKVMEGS
In short: as §1

binding result (KNL1): binds
binding result (ASXL1): binds
binding result (DIP2B): binds
binding result (DPP9): binds
binding result (EPG5): binds
binding result (ALPK2): binds
binding result (EIF2AK4): binds
binding result (BUB1): binds
binding result (ARHGAP31): binds
binding result (AP4E1): binds
B1: LZTR1-FLAG (other, human, UniProt Q8N653 1-840, looked up)
chain: MAGPGSTGGQIGAAALAGGARSKVAPSVDFDHSCSDSVEYLTLNFGPFETVHRWRRLPPCDEFVGARRSKHTVVAYKDAIYVFGGDNGKTMLNDLLRFDVKDCSWCRAFTTGTPPAPRYHHSAVVYGSSMFVFGGYTGDIYSNSNLKNKNDLFEYKFATGQWTEWKIEGRLPVARSAHGATVYSDKLWIFAGYDGNARLNDMWTIGLQDRELTCWEEVAQSGEIPPSCCNFPVAVCRDKMFVFSGQSGAKITNNLFQFEFKDKTWTRIPTEHLLRGSPPPPQRRYGHTMVAFDRHLYVFGGAADNTLPNELHCYDVDFQTWEVVQPSSDSEVGGAEVPERACASEEVPTLTYEERVGFKKSRDVFGLDFGTTSAKQPTQPASELPSGRLFHAAAVISDAMYIFGGTVDNNIRSGEMYRFQFSCYPKCTLHEDYGRLWESRQFCDVEFVLGEKEECVQGHVAIVTARSRWLRRKITQARERLAQKLEQEAAPVPREAPGVAAGGARPPLLHVAIREAEARPFEVLMQFLYTDKIKYPRKGHVEDVLLIMDVYKLALSFQLCRLEQLCRQYIEASVDLQNVLVVCESAARLQLSQLKEHCLNFVVKESHFNQVIMMKEFERLSSPLIVEIVRRKQQPPPRTPLDQPVDIGTSLIQDMKAYLEGAGAEFCDITLLLDGHPRPAHKAILAARSSYFEAMFRSFMPEDGQVNISIGEMVPSRQAFESMLRYIYYGEVNMPPEDSLYLFAAPYYYGFYNNRLQAYCKQNLEMNVTVQNVLQILEAADKTQALDMKRHCLHIIVHQFTKVSKLPTLRSLSQQLLLDIIDSLASHISDKQCAELGADI
notes: Expressed in HEK 293T, HeLa or U87 cells; used as cell lysate; also called LZTR1 wild type-FLAG; LZTR1 WT; not shown: FLAG tag at the C-terminus

Source: patent US20250262210A1 (TRUSTEES OF COLUMBIA UNIVERSITY IN THE CITY OF NEW YORK, published 2025)
